In PMC5792643:

Experiments:
[1] = biological target: G-actin (monomeric actin from chicken muscle) (chicken) (UniProt P68139); experiment: ITC
[2] = biological target: G-actin (monomeric actin) (chicken) (UniProt P68139); experiment: ITC

Substance	stoichiometry N [1]	Kd [2] [nM]	stoichiometry N [2]
Tarp_(726–825) (translocated actin recruiting phosphoprotein, G-actin binding region) (domain or fragment)	1	–	–
Tarp_(726–825) (translocated actin recruiting phosphoprotein, residues 726–825, containing the G-actin binding domain) (from UniProt Q6GX35 726-825) (domain or fragment)	–	102	1
